Measurements published in patent publication US20160052997A1.
Residue numbers refer to the chain shown, from its start. Where “and” joins values, the source holds several entries; their conditions need not be identical. Equal entries are not always repeated. Where two headings read alike, the source gives them in different places.

What was measured:
[1] = molecular target: purified recombinant HA protein of H1N1 (A/Texas/05/09) (Influenza A virus A/Texas/05/09 (H1N1))
[2] = molecular target: purified recombinant HA protein of H1N1 (A/Ohio/07/09) (Influenza A virus A/Ohio/07/09 (H1N1))
[3] = molecular target: purified recombinant HA protein of H5N1 (A/Vietnam/1203/04) (Influenza A virus A/Vietnam/1203/04 (H5N1))
[4] = molecular target: purified recombinant HA protein of H1N1 (A/Ohio/07/09) (Influenza A virus A/Ohio/07/09 (H1N1)); assay: SPR, Biacore T200, HA captured via anti-6x his tag antibody, 25 C
[5] = molecular target: purified recombinant HA protein of H1N1 (A/Texas/05/09) (Influenza A virus A/Texas/05/09 (H1N1)); assay: as above
[6] = molecular target: purified recombinant HA protein of H5N1 (A/Vietnam/1203/04) (Influenza A virus A/Vietnam/1203/04 (H5N1)); assay: as above
[7] = molecular target: HA of A/Brisbane/10/07 (H3N2) virus (Influenza A virus A/Brisbane/10/07 (H3N2)); assay: cell-based or functional assay
[8] = molecular target: HA of A/Hong Kong/68 (H3N2) virus (Influenza A virus A/Hong Kong/68 (H3N2)); assay: cell-based or functional assay
[9] = molecular target: HA of A/Wisconsin/67/05 (H3N2) virus (Influenza A virus A/Wisconsin/67/05 (H3N2)); assay: cell-based or functional assay

B1: CT120 (antibody, V domains shown)
VH: QVQLVQSGAEVKMPGSSVKVSCKTSGVFFSSHAISWVRQAPGQGLEWMGGISPMFGTTHYAQKFQGRVTITADQSTTTAYMELTSLTSEDTAVYYCARDGAGSYYPLNWFDPWGQGTLVTVSS
VL: EIVLTQSPATLSLSPGERATLSCRASENIWNNLAWYQQKPGQAPRLLISGASTGATGVPSRFRGSGSRTEFTLTISSLQSEDFAIYFCQQYNSWPRTFGPGTKVEIKR
Kd [1]: 1.76 nM | Kd [2]: 2 nM | Kd [3]: 3.97 nM | Kd [4]: 1.76 nM and 2.24 nM | koff [4]: 0.000663 s⁻¹ and 0.000789 s⁻¹ | kon [4]: 376000 M⁻¹ s⁻¹ and 352000 M⁻¹ s⁻¹ | Kd [5]: 1.97 nM and 1.55 nM | koff [5]: 0.00119 s⁻¹ and 0.00098 s⁻¹ | kon [5]: 606000 M⁻¹ s⁻¹ and 632000 M⁻¹ s⁻¹ | Kd [6]: 3.74 nM and 4.2 nM | koff [6]: 3.88 s⁻¹

B2: CT164 (antibody, V domains shown)
VH: QVQLVQSGVEVKKPGASVKVSCKTSGYPFSTYGVSWVRQAPGQGLEWVGWISGYTGITDYAQKSQGRVTLTTDASTATAFLELRSLRPDDTATYFCARDKVQGRVEAGSGGRHDYWGQGTLVIVSS
VL: EVVLTQSPGTLTLPPGDRATLSCRASHSVGSTYIAWFQQKSGQAPRRLIYGASNRATDIPDRFSGSGSGTDFTLTIRRLEPEDSAVYYCQQFSVSPWTFGQGTRVEIKR
MN test: lowest antibody concentration at which no virus antigen was detected [7]: 0.625 µg/mL | MN test: lowest antibody concentration at which no virus antigen was detected [8]: 1.25 µg/mL | MN test: lowest antibody concentration at which no virus antigen was detected [9]: 2.5 µg/mL

B3: CT166 (antibody, V domains shown)
VH: B2 VH with V9A, P28S, S64F, S75T, A107V
VL: B2 VL with T12A, D17E, V29I, F37Y, T57S
MN test: lowest antibody concentration at which no virus antigen was detected [7]: 1.25 µg/mL | MN test: lowest antibody concentration at which no virus antigen was detected [8]: 2.5 µg/mL | MN test: lowest antibody concentration at which no virus antigen was detected [9]: 5 µg/mL
